± gives the uncertainty stated by the source.
B1: Androgen receptor, residues 557 to 632; numbered along this chain, P10275 (parent)
chain: QKTCLICGDEASGCHYGALTCGSCKVFFKRAAEGKQKYLCASRNDCTIDKFRRKNCPSCRLRKCYEAGMTLGARKL

Variants of: B1
Test: abundance fitness (aPCA) (normalised: wild type 0, dead -1); higher = more abundant; growth selection in yeast, the domain comes from the species named
Conditions: Homo sapiens

Abundance fitness: each site, then its substitutions
D45: M -0.206 ± 0.15, G -0.162 ± 0.056, E -0.037 ± 0.082, Q 0.176 ± 0.13, K 0.101 ± 0.12, S -0.275 ± 0.13, T -0.091 ± 0.1, V -0.12 ± 0.062, I -0.07 ± 0.1, L -0.177 ± 0.075, C -0.325 ± 0.21, A -0.094 ± 0.074, P -0.221 ± 0.29, N 0.009 ± 0.085, F -0.498 ± 0.24, Y -0.176 ± 0.25, W -0.465 ± 0.25
Y38: P -0.007 ± 0.063, E -0.064 ± 0.083, A -0.057 ± 0.067, K -0.085 ± 0.099, I 0.111 ± 0.1, C -0.305 ± 0.11, H -0.231 ± 0.095, D -0.059 ± 0.094, Q -0.072 ± 0.086, V -0.092 ± 0.063, W -0.239 ± 0.11, M -0.036 ± 0.09, S -0.116 ± 0.061, G -0.222 ± 0.064, T -0.179 ± 0.08, N -0.245 ± 0.094, L -0.046 ± 0.049, R -0.239 ± 0.058, F -0.097 ± 0.093
E33: M 0.014 ± 0.065, R -0.042 ± 0.043, C 0.072 ± 0.071, W -0.25 ± 0.082, P -0.135 ± 0.066, H -0.153 ± 0.086, Y -0.187 ± 0.064, A -0.121 ± 0.05, G 0.044 ± 0.042, F -0.343 ± 0.069, D -0.066 ± 0.063, V -0.089 ± 0.044, T -0.058 ± 0.051, K 0.013 ± 0.075, L -0.173 ± 0.046, I 0.03 ± 0.062, Q 0.023 ± 0.075
C46: P -0.926 ± 0.12, S -0.843 ± 0.081, Y -1.06 ± 0.19, W -0.878 ± 0.095, H -0.38 ± 0.083, V -0.942 ± 0.088, Q -0.8 ± 0.1, M -0.914 ± 0.11, K -0.735 ± 0.12, I -0.784 ± 0.13, F -0.912 ± 0.12, N -0.711 ± 0.14, T -0.713 ± 0.085, E -0.542 ± 0.1, R -0.892 ± 0.073, D -0.495 ± 0.21, A -0.904 ± 0.17
K50: W -0.227 ± 0.099, F -0.277 ± 0.22, G -0.146 ± 0.057, N 0.087 ± 0.34, P -0.007 ± 0.1, Q -0.075 ± 0.11, R -0.068 ± 0.073, V -0.063 ± 0.069, I -0.26 ± 0.3, H -0.087 ± 0.31, E -0.124 ± 0.1, S -0.13 ± 0.087, M -0.195 ± 0.13, T -0.068 ± 0.18, Y -0.124 ± 0.26, C -0.103 ± 0.27, D -0.403 ± 0.35, L -0.027 ± 0.069
G34: D -0.372 ± 0.49
T47: C -0.077 ± 0.035, R -0.108 ± 0.031, H -0.026 ± 0.035, N -0.067 ± 0.053, Y -0.071 ± 0.037, M -0.086 ± 0.086, P 0.007 ± 0.035, W -0.244 ± 0.039, S -0.015 ± 0.032, Q -0.075 ± 0.047, D -0.017 ± 0.047, E -0.059 ± 0.041, F -0.077 ± 0.039, G -0.079 ± 0.029, L -0.041 ± 0.029, I -0.03 ± 0.058
N55: I -0.075 ± 0.073, C -0.075 ± 0.14, K 0.044 ± 0.077, E -0.407 ± 0.29, G -0.073 ± 0.11, H -0.011 ± 0.059, L -0.022 ± 0.054, P -0.099 ± 0.074, Q -0.076 ± 0.081, M 0.216 ± 0.11, A 0.089 ± 0.096, D 0.032 ± 0.078
R52: N -0.072 ± 0.069, K -0.033 ± 0.11, A -0.157 ± 0.08, C -0.087 ± 0.095, M -0.067 ± 0.12, D 0.047 ± 0.092, L -0.044 ± 0.052, I -0.042 ± 0.067, V 0.041 ± 0.057, E -0.003 ± 0.091, Q -0.063 ± 0.1, F -0.164 ± 0.076, H -0.076 ± 0.078, Y -0.09 ± 0.068, G -0.001 ± 0.069, S -0.087 ± 0.051, P 0.004 ± 0.063, T 0.067 ± 0.082, W -0.311 ± 0.16
N44: L -0.251 ± 0.059, C -0.419 ± 0.15, K -0.177 ± 0.099, D -0.002 ± 0.091, Y -0.274 ± 0.15, V -0.343 ± 0.068, G 0.026 ± 0.039, I -0.433 ± 0.21, H -0.229 ± 0.13, M -0.083 ± 0.062, T -0.159 ± 0.068, A -0.064 ± 0.045, S -0.076 ± 0.062, W -0.344 ± 0.061, E -0.031 ± 0.056, R -0.258 ± 0.044, F -0.158 ± 0.16
A31: S -0.024 ± 0.059, Q -0.075 ± 0.062, V -0.128 ± 0.056, N -0.144 ± 0.14, P -0.519 ± 0.17, K -0.627 ± 0.18, I -0.387 ± 0.17, C -0.072 ± 0.062, H -0.102 ± 0.079, M -0.182 ± 0.082, T 0.025 ± 0.064, L -0.225 ± 0.053, Y 0.086 ± 0.067, E -0.093 ± 0.068

Reference: the Human Domainome abundance scans (Beltran et al. 2025)
